These results are taken from the RNAGym collection of RNA variant scans (doi:10.7554/elife.80360).

The chains are these.
B1: CPEB3 Ribozyme (parent)
chain: GGGGGCCACAGCAGAAGCGUUCACGUCGCGGCCCCUGUCAGAUUCUGGUGAAUCUGCGAAUUCUGCUGU

The series covers variants of B1. In words: self-cleavage, relative activity (ratio to wild type); higher = more cleavage; co-transcriptional.
In the case of A10C U55G, the self-cleavage amounted to 0.799.
Take A10U A40G: the self-cleavage was determined as 0.951.
Then A10G U62C, with 0.376; and A10U G31A, with 0.976.
Then A10U G31U, with 0.895; and G11A A51C, with 0.757; and G11A C33A, with 0.853.
Then A10G U20A, with 0.0584; and A10G G25U, with 0.132; and A10G G25A, with 0.0673.
Take A10G G30A: the self-cleavage amounted to 0.96.
Then A10G G30U, with 0.704; and A10G C22A, with 0.141; and A10G U67C, with 0.967.
On to G11A A52G, for which the self-cleavage stood at 0.928.
On to G11A C27U, for which the self-cleavage was 0.107.
Then G11A C27G, with 0.139; and G11A C27A, with 0.2.
Then A10G U64G, with 0.398.
In the case of A10U C22A, the self-cleavage was 0.208.
Then A10U C34U, with 0.985; and A10G G28C, with 0.169; and G11A C32U, with 0.95.
Then A10U U36C, with 0.924; and A10U U36G, with 0.195.
Then A10U G14U, with 0.654; and A10G G41C, with 0.326.
Take A10G G41A: the self-cleavage was 0.37.
Then A10U C63U, with 0.969.
On to A10G A13U, for which the self-cleavage turned out to be 0.13.
Regarding A10G A13G, the self-cleavage stood at 0.233.
Turning to G11A C22G, the self-cleavage turned out to be 0.119.
Then A10U A16U, with 0.877; and A10U A16G, with 0.924; and G11A A60C, with 0.205.
As for A10C U44G, the self-cleavage was 1.02.
For the variant A10G G58U, the self-cleavage came to 0.947.
For the variant A10U A15C, the self-cleavage worked out at 0.746.
Then A10G C18U, with 0.264; and A10G C18G, with 0.0572.
Regarding A10G C18A, the self-cleavage was found to be 0.0954.
Regarding A10G G14C, the self-cleavage came out at 0.0631.
Then A10U C54G, with 0.958; and A10U C54A, with 0.902; and A10C U53G, with 0.927.
As to A10G G47U, the self-cleavage amounted to 0.919.
On to A10U U64G, for which the self-cleavage was found to be 0.897.
As for A10U U64A, the self-cleavage worked out at 0.8.
Then A10G G37A, with 0.219; and A10G G37U, with 0.11; and A10U C27A, with 0.272.
Then A10U C27U, with 0.547.
Then A10U G68U, with 0.982; and A10U G68A, with 1.05; and A10G C33G, with 0.854.
Regarding A10G C33U, the self-cleavage came to 0.953.
Then A10C U49G, with 1.04; and A10U U62C, with 0.757; and A10U U62A, with 0.882.
For A10G C27U, the self-cleavage stood at 0.613.
As to G11A A13G, the self-cleavage was 0.184.
On to G11A A13C, for which the self-cleavage amounted to 0.182.
Then A10U U46A, with 0.954; and A10U U46C, with 0.983.
Then A10G C45G, with 0.839; and A10U A60G, with 0.953; and G11A A59G, with 0.859.
Then G11A A59C, with 0.3; and A10U G65U, with 0.796.
For the variant A10U G65A, the self-cleavage was 0.842.
Turning to A10G C32A, the self-cleavage turned out to be 0.847.
As to A10G C32U, the self-cleavage worked out at 0.939.
A10U C57A: the self-cleavage came to 0.273.
Then A10C U64C, with 0.769; and A10C U64A, with 0.779; and A10G A23C, with 0.939.
Then A10G A60U, with 0.221.
A10G A60C: the self-cleavage was 0.176.
For the variant A10U C29A, the self-cleavage was 0.722.
Then A10G A42C, with 0.668; and A10C U43A, with 0.892; and A10C U43C, with 0.965.
Then A10C U43G, with 0.808; and A10U U61G, with 0.78.
In the case of A10U U61A, the self-cleavage was 0.911.
For the variant A10U U53C, the self-cleavage stood at 0.871.
Then A10C U38G, with 0.248; and A10C U38A, with 0.869.
Then A10U U43G, with 0.831; and A10U U43A, with 0.941.
Then A10U U43C, with 0.975; and A10U G48C, with 1.03; and A10U G48A, with 1.02.
A10U G30U: the self-cleavage was found to be 0.733.
Consider A10G G17C, for which the self-cleavage came to 0.106.
A10U U55C: the self-cleavage was found to be 0.9.
In the case of A10U A59G, the self-cleavage came to 0.968.
A10U A52U: the self-cleavage amounted to 1.02.
In the case of A10U U26G, the self-cleavage was found to be 0.994.
Then A10U U69C, with 1.07; and A10U U69G, with 1.06; and A10G U38A, with 0.784.
Then A10G U38C, with 0.906; and A10G U38G, with 0.182; and A10U G25A, with 0.171.
Then A10U C45G, with 0.949; and A10G A52G, with 1.01; and A10U U67G, with 1.01.
With A10U U67A, the self-cleavage stood at 0.997.
Then A10G U44G, with 0.71; and G11A A40U, with 0.357.
As to G11A A40G, the self-cleavage was 0.726.
Then A10U A13G, with 0.56.
Then A10U A13U, with 0.701.
Then A10C U62A, with 0.926.
On to A10G G65U, for which the self-cleavage was 0.303.
As for A10G G65A, the self-cleavage is 0.337.
Then A10U G37C, with 0.3; and A10G C66A, with 0.385; and A10C U67A, with 1.02.
For A10U C18U, the self-cleavage came to 0.883.
Then A10U C18A, with 0.222; and A10U G17A, with 0.547.
A10G U46A: the self-cleavage is 0.91.
Regarding G11A C12U, the self-cleavage worked out at 0.549.
With A10U A51G, the self-cleavage came to 0.955.
In the case of A10U A51U, the self-cleavage is 1.04.
Then A10U G56A, with 1.01; and A10U G56U, with 0.984.
Then A10U G50U, with 0.978; and A10G G50A, with 0.949; and A10U C35G, with 0.64.
As to A10U C35A, the self-cleavage was determined as 0.245.
Then A10U G41C, with 0.859; and A10G A40U, with 0.301.
As to A10G U55G, the self-cleavage came out at 0.36.
Then A10G C34U, with 0.982.
As to A10G G31C, the self-cleavage was 0.322.
Then A10U C12U, with 0.913; and A10U C12A, with 0.707; and G11A A15C, with 0.849.
For A10U C66G, the self-cleavage is 0.924.
As for A10U C66A, the self-cleavage came to 0.845.
As to A10U A42C, the self-cleavage worked out at 0.937.
In the case of A10G C12A, the self-cleavage came to 0.356.
In the case of A10G C12G, the self-cleavage is 0.742.
Then A10G C12U, with 0.948; and A10G C35U, with 0.892.
In the case of A10G C35G, the self-cleavage was found to be 0.496.
Then A10G C35A, with 0.197; and A10C U46C, with 0.98.
Regarding A10G U26A, the self-cleavage came to 0.933.
With A10G U26G, the self-cleavage stood at 0.877.
Then A10G U26C, with 0.351.
With A10U G11C, the self-cleavage amounted to 0.892.
Then A10U G11A, with 0.873; and A10U G58A, with 0.975.
Regarding A10G U53C, the self-cleavage was determined as 0.333.
Then A10G U53A, with 0.651.
As for A10U U44A, the self-cleavage stood at 0.967.
Then A10U G28A, with 0.139; and A10U G28U, with 0.14; and A10U G28C, with 0.137.
Then A10G A59G, with 0.925; and A10G U61A, with 0.6.
Then A10G C29U, with 0.126.
On to A10G C29A, for which the self-cleavage worked out at 0.324.
